Assay results taken from the supplement of paper PMC9170038.

System: K4 kissing-loop RNA reporter
Assay: apparent KD of K4 kissing-loop reporter; higher = weaker reporter binding
Settings: Eterna round: R107
Description: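 RNA-MaP round R107: designed RNA switches with theophylline, tryptophan, arginine or FMN aptamers are transcribed on-chip within common flanks. They are titrated with a labelled K4 kissing-loop RNA reporter in RNA-MaP buffer (100 mM Tris pH 7.5, 80 mM KCl, 4 mM MgCl2), without ligand or with the indicated ligand. Median apparent KD per design.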

[1] = input ligand: theophylline 20 uM
[2] = input ligand: tryptophan 2.4 mM
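Note: bound reporter read as fluorescence of individual clusters on recovered sequencing chips by microscopy, with normalized cluster intensities fitted with a binding model.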

Sequence	apparent KD of K4 kissing-loop reporter (input ligand: FMN 200 uM)	apparent KD of K4 kissing-loop reporter (input ligand: arginine 13.2 mM)	apparent KD of K4 kissing-loop reporter (input ligand: none)	apparent KD of K4 kissing-loop reporter [1]	apparent KD of K4 kissing-loop reporter [2]
GGUGAUGAGCACGAUACCAGCCUCGGAGCCAGUGAUGUUGGCCCAGUUUAGAAUAAGACAGGCCCUUGGCAGCGUGACGAUGGCU [Inorusre]	885 nM	980 nM	1020 nM	687 nM	981 nM
GGGUGUAGUGCGGCCGCCACUGUGAUAGUAGAAGAGUAUAGUGAUGUUAUAUAGGAUUAAUAGAAUAGGACCGGGCAUUAGACUU [#24 K4 Tryptophan B Same State]	348 nM	340 nM	368 nM	395 nM	209 nM
GUUAAAUAAAUGGGCAUAGUGAUGUUGUGUCGAGGACCGGUACGGCCGCCACUCGAGCUAGCAUGCCGGUCAUUAUGGGUAGUUU [theeternabot_exclusion_KL_Trp_A_46]	112 nM	118 nM	142 nM	132 nM	219 nM
CGCAGUGAUGUUGCUAUUAUUCUUGAUUAACGAGGACCGGUACGGCCGCCACUCGAUUUCUAUCUAAUCCAGUGUUUUGUUGAGU [JR_ExcTryptoA_Sub002]	324 nM	422 nM	346 nM	455 nM	240 nM
GGAGUAACCUGGGAUACCAGUCGGAGGCCUAGGGAUCGGAGUGAUGUUCUGGGAUGUUUCGGCCCUUGGCAGCUCUGGGUCUCCG [#2 Exclusion - Theophylline B Attempt #2 (HarryS)]	184 nM	105 nM	151 nM	158 nM	144 nM
UGUCAUUGGUCGGCCGCCACUUCGUGUAGAGUGAUGUUUUGUAGGACGGAUCGAAAGAUCUGUCGGAGGACCGGGACCGAUGACU [FiskerMod 17 - Jieux - Same State - Tryptophan B]	228 nM	139 nM	408 nM	481 nM	889 nM
UCCUAGGCUCGAAAGAGCCUAGGUUAGACUCAGGAUAUCUGGAAACAGAGAAGGGAGCUACUAGUGAUGUUAGGAAUUCCCAUUU	102 nM	85.7 nM	97.5 nM	88.5 nM	95.6 nM
CAUGAGUGAUGUUCGUGCGCUUGGUCGAAGCGAGGACCGGUACGGCCGCCACUCGCUAUGGCGGCAUCUACCAGUGAUGUUGGUG [Same State Tryptophan A GF 2]	241 nM	171 nM	228 nM	202 nM	208 nM
AGUACAAUGGCGGCCGCCACUCAACGCAGAUCAAAGAUCUGCGUUCACUCAGUGAUGUUGAGUGAGAGGACCGGGCCUUUGUACA [Omei KL Tryp B SS B v5]	221 nM	180 nM	190 nM	170 nM	141 nM
AAUUCAAACUGAAGGAGCGAGCAUUUUGGAGUGAUGUUCCAAGCGAGUGAUGUUCGCAUAGCUCAGGUAGGUCGCAGUUUGGAUA [Same State Arginie B GF 14]	143 nM	136 nM	144 nM	143 nM	139 nM
AGGAUGUAGUGAUGUUAUAUAAGAAGUAAACGAGGACCGGUACGGCCGCCACUCGAAGCGGCUACUAGCGUGUUGCGAGGUGCGC [ExTryptoA.Cd]	370 nM	324 nM	229 nM	230 nM	197 nM
UUUCGGUUCUGAGGAUAUUCGGACAAAUAUAGUGAUGUUGUAUAAGGAGGAGGGUGUUGGGAGUGAGGAGAAGGCAGAAGAGGAU [ExFMNB.S]	838 nM	707 nM	759 nM	670 nM	473 nM
UUAGGAGUGGAAGGAUAUCCUGGUGUGGGUGAUGUUAGUGAUGUUGAAAGUGCAGUGAUGUUGUGCGGAGAAGGUCCGGUGUUGA [BDazzled - #8 - Exc. FMN B]	147 nM	124 nM	176 nM	243 nM	145 nM
CUGACUCAAUAGUCAGUGAUGUUGACUGGACGAGGACCGGUACGGCCGCCACUCGAGAGUGGUGUAAAAUAUGUCACAGAGUCAG [Tryp A SS t3b]	186 nM	194 nM	208 nM	182 nM	200 nM
GGGAGGAGUGGUGUUGAUUAAGAAGCGGAAGGAGCGCCGAAGAAGGCAGGUAGGUCGCCGGAAUAUAGUGAUGUUAUAUAGAGGG [ExArg.E]	529 nM	323 nM	230 nM	406 nM	252 nM
GAAUCAUGUAGAAGGAGCGUUAGAAGUUAUAGGGAUGAGUGAUGUUUGUGUUAGUAAAUCUGACAGGUAGGUCGCUACAGAAGGA [KL-SSArg B21 #analogue]	712 nM	258 nM	607 nM	132 nM	308 nM
AGGCGGCAUAAUUGACUGAAAAGAAAUUAACGAGGACCGGUACGGCCGCCACUCGAACACCAGUGAUGUUGGUAUGGGAUAAUUU [Exclusion Tryptophan A GF 18]	91.6 nM	62.7 nM	52.9 nM	169 nM	47 nM
UGGUUUAACUGAAGGAGCGGCAAUUGAUAAGUAGAUAUAGUGAUGUUAUAUAAGAUAGAGAGCCAGGUAGGUCGCAGAGGUGUUU [ExArgB.Q]	208 nM	204 nM	232 nM	253 nM	189 nM
UUUGGAAGCGGUGUUGAUUAGGGAGCGGAAGGAGCGCCGAGGAGGGCAGGUAGGUCGCCGGAAUGUAGUGAUGUUGCAUAGAGGU [ExArgA.Aa]	290 nM	265 nM	214 nM	526 nM	178 nM
CGCCGGAAGGCGAGCGCUCCCACUCCGGAAGGAGCGCCCGGAAGGGCAGGUAGGUCGCCGGAGUGAUGUUCCGGUGGAGGGCUCG [#2 Exclusion - Arginine A Attempt #11 (Inspired by Omei)]	171 nM	58 nM	164 nM	99.3 nM	99.9 nM
GUCUCGAGUGAUGUUCGGGUCGAUUGGGAAGGAGCGCCCGGAAGGGCAGGUAGGUCGCCCGGGCCGCGCGGGAAACCGCGCGUCC [#2 Same State - Arginine A Attempt #8 (HarryS)]	208 nM	110 nM	194 nM	140 nM	154 nM

Sequence	apparent KD of K4 kissing-loop reporter (input ligand: FMN 200 uM)	apparent KD of K4 kissing-loop reporter (input ligand: arginine 13.2 mM)	apparent KD of K4 kissing-loop reporter (input ligand: none)	apparent KD of K4 kissing-loop reporter [1]	apparent KD of K4 kissing-loop reporter [2]
AGUGUUAGGUUAGAUACCAGCCGUCUGUAGAUAAUCCUCAGACCGCCAGUGAUGUUGGCAGGCCCUUGGCAGCUAACAGAACAGA [Orbediqu]	238 nM	206 nM	210 nM	154 nM	214 nM
UGUCAUGGAAACAUGAACGUUAAAAUAAAUCGAGGACCGGUACGGCCGCCACUCGUAUAGCGGUCAGUGAUGUUGACUGUAGUAA [KL-SSTryp-A form2 sub8]	99.2 nM	116 nM	108 nM	116 nM	96.8 nM
GUCUGUGUACUAGGAUAUGGUUGCAGGCAGUCAGGUCGCCUUUUCGGCGGCCAGUGAUGUUGGUGGCCAGAAGGAGUACGUGAUG [Raorin]	776 nM	659 nM	731 nM	720 nM	699 nM
CCCAAGGGCCUACCGGUAUUAUUAACGGAUACCAGAGGCGAAAGCCUCCCUUGGCAGCCGGGUGUAGUGAUGUUACUCCGGUAGU	83.4 nM	64.7 nM	70.2 nM	63.2 nM	78.1 nM
AGUAGUUGGGCGGCCGCCACUGGAACAGCUUUGUCAAAGACAGAGCACUAGAGUGAUGUUCUAGCUAGGACCGGGUCCAACUACA [whbob_SS_Tryp_B_t17]	460 nM	206 nM	533 nM	503 nM	991 nM
AGGAUCCGUCGACAAAAGUCGACAUAAACCGAGGAUAUGACGAAAGUCAGAAGGUGGUCAUAAGACCAGUGAUGUUGGUGGAUCC [FmnA 14 #SwitchBubble #K4Late]	1250 nM	282 nM	494 nM	318 nM	305 nM
UAAAUAAAAUCCUAGUGAUGUUAGGAUAUGUAGGAUAUCGGGAUACCGAGAAGGACAGAAGGAGGAGUGAUGUUCCUCAAUAAAU [FmnAX 30 #DoubleAptamer #DoubleK4 #OpenEnded]	72 nM	72.1 nM	59.3 nM	74.5 nM	59.5 nM
GCUAUGGUAGGAAGGAGCGCUUACUCGGUCAUAAGAGUGAUGUUCGAGACCGAGUAUUUAUAGCAGGUAGGUCGCCUACUAUAGC [Arginine B K4 6]	68 nM	124 nM	2.37 nM	199 nM	352 nM
UUUCGCUUCGUCUGAUAUAAUUGGCCAGAAGGAGCGGUAGAAUUACCAGGUAGGUCGCUGGCCCAGUGAUGUUGGGACUAGCGUG [Isrianve]	118 nM	103 nM	104 nM	107 nM	94.1 nM
CCGUGGAGUGAUGUUCCACGUUCUACGGAUACCAGUUGUGCCAGCGGCCCUUGGCAGCCGCACCUUGCAGUGAUGUUGUGAGGCU [Same State Theophylline A Gf 6]	238 nM	210 nM	225 nM	229 nM	198 nM
AGGCACGAGCAAGGAUAUCGAGUAGAGUGAUGUUCUGCCUGGGUUGGCUCGGAAGGGCCUUCCCAGCGAGAAGGUGCUCGUGCCU [#2 Same State - FMN A Attempt #16 (HarryS)]	189 nM	637 nM	590 nM	674 nM	493 nM
CACUGGGCGAGUGAUGUUCGCUCACGUGAUACCAGUGCCAUCCAACACCCUUGGCAGCAUGCGGGCAGUGAUGUUGUCCAAAGAA [Exclusion Theophylline A GF9]	204 nM	187 nM	207 nM	208 nM	184 nM
AAAUAAAGCAGUCACCCAGUGAUGUUGGAAGGAGCGUGCGAAAGCACAGGUAGGUCGCCAAAAUAAAGUGGCUGCGGCAAAGCCA [#SwitchBubble 25 #K4Early]	409 nM	428 nM	399 nM	578 nM	305 nM
UGAUACCAGACGGCCGCCACUCCCGCAGGUCAAAGACCUGCGAAGAAGGUUUUUUAGUGAUGUUGGAGGACCGGGUCUGGUAUCU [FiskerMod 20 - Jieux - Exclusion - Tryptophan B]	311 nM	92.6 nM	257 nM	140 nM	689 nM
UGCCGCAAGGCGAGCGCUCCCACUCCGGAAGGAGCGCCCGGAAGGGCAGGUAGGUCGCCGGAGUGAUGUUCCGGUGGAGGGCUCG [#2 Exclusion - Arginine A Attempt #26 (Inspired by Omei)]	462 nM	165 nM	358 nM	337 nM	297 nM
AGACGAGAUGAAGGAUAUGCGGACAAAGUGAUGUUUUGUCCGAAAGUAGGCAGUAAUAUCGAAAAUGCAGAAGGUCAAGAACAUA [theeternabot_exclusion_KL_FMN_B_36]	135 nM	173 nM	143 nM	256 nM	145 nM
AGUGAUGUAUGGCGGUGUGUCACUUAAAAUCAGGAUAUAUAAACAAAUAGAAGGGAUGGCGGAGUGAUGUUCCGCCGGCCGCCAU [FMN A Exl V2]	173 nM	147 nM	157 nM	165 nM	159 nM
GUGAUAUCGCAAGGAUAUCCAAUUUCUGCGGAUAAGUGAUGUUUGGCGCCGCCUCAGUUAUGGCAAGGAGAAGGUGCGGCCUAGC [theeternabot_sameState_KL_FMN_B_28]	473 nM	286 nM	428 nM	366 nM	383 nM
UCCUGCAAUCGUCCACGAAAGUGGAUCGAUACCAGAGUCGAAAGACUCCCUUGGCAGCGAGUGAUGUUCGAAGCAGGUAAAUAAA	487 nM	387 nM	466 nM	548 nM	391 nM
CCAUUCUUUUACGAUACCAGUUUAAUAUAUUUAUUCAAAACCCUUGCCGAGUGAUGUUCGGACCCUUGGCAGCGUUUGCGAGAGG [ttedstkmullin]	455 nM	376 nM	465 nM	434 nM	356 nM
UUAACCAACAGCGAUACCAGCGUGGAGUGAUGUUCCGAGGAUCGGAGUGAUGUUCCGAAGCGCCCUUGGCAGCGCAGAAGCGCAA [Exclusion Theophylline B GF8]	193 nM	148 nM	241 nM	251 nM	255 nM
